According to patent publication US20060286568A1:

Assays:
eGFP-EAAT3 = assay: cell-based or functional assay
eGFP-EAAT4 = assay: cell-based or functional assay

## myc-tagged wildtype β-III spectrin (SP-WT) (from UniProt O15020 2-2390)
eGFP-EAAT3
  % of diffraction spots not moving (TIRF microscopy, HEK293 cells): 58.7%
eGFP-EAAT4
  % of diffraction spots not moving (TIRF microscopy, HEK293 cells): 94.2%
  diffraction spots moving at or near the membrane (TIRF microscopy, HEK293 cells): 5%

## myc-tagged mutant β-III spectrin with the 39 bp American SCA5 deletion (SP-Δ39; p.E532_M544del) (from UniProt O15020 2-2390)
eGFP-EAAT4
  % of diffraction spots not moving (TIRF microscopy, HEK293 cells): 67.5%
